Experimental findings from US20160054331A1 are described below.

The target in the assay is Hexa-His tag amidated peptide HHHHHH-CONH2. Put plainly: peptides on microspheres, PE anti-mouse IgG, Luminex.

On to “anti-C-term His tag antibody 3D5 (Invitrogen, Carlsbad, Calif.)”, for which the binding remaining after amidation of the C terminus (percent) is < 15%.
